Data reported in the DeepSol protein solubility set.

Assay: soluble on expression in E. coli; label from the status in PepcDB or PDB records

| Sequence | soluble on expression in E. coli |
| --- | --- |
| MKKEPLFVALSNQKGGVGKSTLTVLLASYFHYHKAKNVLVVDCDYPQHSMMTLREWDIKNVEKTPRLQSLLVEQFGDTGRKAYNILASMPEQAKETAYGFIDRSDTEYDLVLLDLPGTVNTTGVFQSIINMDYVFTPITQERMVMQSSMSFVLSIREYLLHHKGVPLRDIHMFWNKMDKRVSRDLYDAYMEIIRSLGLPVLNTVLPAAERYKKDVGLNGQIFRSTLFPPSAAALKGSNFDLLAAEMETILGL | not soluble |
| MKKETKPRVVVIGGGTGLPVILKGLKKKDIHLTAIVTVADDGGSSGKIREQMDVLPPGDIRNVMLALSNVDPRVVDLFQYRFAVDGDLSGHVIGNLILTALSQLNDSYVDAINVLATVLKIRGKVIPATDQPLILNAEMEDGSIVHGESLIPLQGKHINRVYIEPENVKPYPTAVEAVKEADLIVIGPGSLYTSILPNLLLTELADEITASKAPKVYITNILTQIGETDFFSDADHIKVIHEHVGKSFIDKTLINTTTVPKELLFPEDVAQVEHNAKGMEELGVEAIYQDFLSTEDGLVRHAAEKVADALLAMLPNQTNEKELEHHHHHH | soluble |
| MKKFKNILFATQGLPGHSDALEQAIQLAYNNRGQLAGLIAFPAFPADLQRYQEPYEQSYLNTLMETVEACRSQHHIHKDEVPFPLMVEHSEQPAVAIIKSALNHHIDLLIKEAEPMTHSQQGFKALDMTLLRKCPCPVWLHR | not soluble |
| MKKFLTQVFTWWNGQTLGTRFHTWRKGERVGEDEFGNVYYQGGKDSEGRTRRWVIFNGYSEASTIPPGWHGWMHHRVDTPPSKEDYRPREWQKPHLQNLTGSPLAYRPKGSIALPGAQPAERPRVTGEYDAWTPGNLEHHHHHH | not soluble |
| MKKIAVFADVQNLYYTVRQAYGCHFNYAALWADISKRGEIVHAFAYAIDRGDSKQQQFQQILRNLGFTVRLKPYIQRSDGSAKGEWDVGITIDIMDFAPQVDEVVLASGDGDFDMLLDRVISKHGVEAVAYGVPGLTANSLIRAASRYVPIEGALL | soluble |
| MKKIKLGFAPTRRSIFSAPDAVKYRGLTAQRLKELGVDFVDITDINEEGLLYDDKDVDKIVEKFKKEGVDGLMLPHCNFGTEYVCARLAKKLDVPVLLWGPLDERPEPNGVRLRDTQCGLFATGKVLRRFQIPFTYLTNCRLNDPVFERGVKDFLAVCNVVKTFKNIRILQISTRPFDFWTTMCNEGELLEKFNIQLAPVPMTELTEEVKTVREDKEKMEQMIAYIKDTMVIKIKEEEVEMVAALALAMKSLVEKYGCQAAAIQCWNALQTEIGIMPCAANAILNEQGIPVVCETDIHGAVTALLAEAAGMDEKRGFFADWTIRHPDIENGELLQHCGPWPMSVAQEKPELTYPLAFEHPGSLTAEAKHGEVTLCRFDGDNGEYSLLLGNAKGVDGPKGMGTYLWVEVENIKRLEAKIVEGPYIHHCVGIHKNVVPVLYEACKYIGVKPDLYDPIEEDVKAYLRGE | not soluble |
| MKKILLLNGPNLNMLGKREPHIYGSQTLSDIEQHLQQSAQAQGYELDYFQANGEESLINRIHQAFQNTDFIIINPGAFTHTSVAIRDALLAVSIPFIEVHLSNVHAREPFRHHSYLSDVAKGVICGLGAKGYDYALDFAISELQKIQLGEMMNG | soluble |
| MKKLEIEFEQVVKQYKNTIYTVCFMFSKDSREVNDLFQDVLVNLWKGFDTFKGESNIGTWIWRVSLNTCISSDRKKKIVSVPLIMGIDLFEDRDEDTTQIKMLYNRISRLKHFDRAIVLLWLENFSYEEIAAIVGISVKNVSVRLFRIKEELKKMSNN | not soluble |
| MKKLMITQEAGVATVLIKNPPVNILTIDLINELNAFILSLKDDRETKVVVFKSFHEAFFIAHLDLNVINGTSGGQAASIEFNHMIANIKAMKQLSIAVVDGVARGGGNEFVMACDLAYGTENSAFAQPELYINIPTGGQGAVQFARRLGKGKALQALLTGADFTAQQAETLNIITQFVLKAELDVFLAQLLSVIVGWEIRDIVMYKEIIAASIKDEAVGTELELRYFLERAREEKTQTIIAAFLKH | soluble |
| MKKPFSKLFGLKNKDDIIGHIEEDRNSNVESIQIERIVPNRYQPRQVFEPNKIKELAESIHEHGLLQPIVVRPIEEDMFEIIAGERRFRAIQSLNLPQADVIIRDMDDEETAVVALIENIQRENLSVVEEAEAYKKLLEIGDTTQSELAKSLGKSQSFIANKLRLLKLAPKVLLRLREGKITERHARAVLSLSDSEQEALIEQVIAQKLNVKQTEDRVRQKTGPEKVKAQNLRFAQDVTQARDEVGKSIQAIQQTGLHVEHKDKDHEDYYEIKIRIYKR | not soluble |
| MKKPNHSGSGQIRIIGGQWRGRKLPVPDSPGLRPTTDRVRETLFNWLAPVIVDAQCLDCFAGSGALGLEALSRYAAGATLIEMDRAVSQQLIKNLATLKAGNARVVNSNAMSFLAQKGTPHNIVFVDPPFRRGLLEETINLLEDNGWLADEALIYVESEVENGLPTVPANWSLHREKVAGQVAYRLYQREAQGESDAD | soluble |
| MKKQNPWIYLNEEEKNQILNFSESYKKFISKFKTEREVTAYALDKAKKLGFINAEEKKNLMPGDKIFYTCREKSVAFAIIGKNPIEDGMNFIVSHTDSPRLDAKPSPISEENELTFIKTNYYGGIKKYQWLSTPLSIRGVVFLKNGEKVEINIGDNENDPVFVIPDILPHLDRKIQRNKKSDEIVEGENLKILIGSLPIETKEKNKVKLATLQLIKEKYKIEEEDFVSSEIEIVPAGTAKDVGFDKALIGAYGQDDKICVFTSLESIFDLEETPNKTAICFLVDKEEIGSTGSTGLDSRYLEYFVSDMIFKIKKSEYNNLHVQKALWNSKSISADVCAAINPLFSSVHDEQNAPQLGYGIPIMKYTGHGGKSMASDADAELVSYIRQLLNKNNIAWQVATLGKVEEGGGGTVAKFLAGYGIRTIDMGPAVISMHSPMEITSKFDLYNAYLAYKAFYRE | soluble |
| MKKTFNLVATAAAGIEAVVGKELRNLGLDCQVENGRVLFKGNIETIAKSNLWLRSADRIKIVVGEFPARTFEELFQGVYALDWENYLPLGCQFPVAKAKSVKSKLHNEPSIQGITKKAIVKKLQHYFHRPDSVPLPENGPEFKIEISLLKDQARVMIDTTGPSLFKRGYRTEKGGAPIKENMAAAIILLSNWFPDKPFVDPTCGSGTFCIEAAMIGMNIAPGFNRDFAFEEWPWVDEALVTRVRNEADEQADYDIQLDISGFDFDGRMVEIARKNAREVGLEDVVKLKQMRLQDFKTNKINGVLISNPPYGERLLDDKAVDILYNEMGETFAPLKTWSQFILTNDTDFEQKFGRKADKKRKLYNGSLKVDLYQFYGQRVKRVLR | soluble |
| MKKTLATLFLLTCLGSSSAYADNALILQTDFSLKDGAVSAMKGVAFGVDHNLKIFDLTHEIPPYNIWEGAYRLYQTASYWPQGSVFVSVVDPGVGTDRKSIVLKTKNGQYFVSPDNGTLTLVAESLGIESVREIDEKANRLKGSEKSYTFHGRDVYAYTGARLASGAITFEQVGPELPAKVVELSYQKAKATKGEVKGNIPILDIQYGNVWSNISDELLNQAGIKLNDTLCVTISEGSRQKYAGKMPYVASFGDVPEGQPMVYLNSLLNVSVALNMDNFAQKHQVASGADWNIDVKKCDK | not soluble |
| MKKTYYLFNPGELSRKDNTIRFVPIQEGENGQEQAGQARYIPVEGISDFYVFGSLRANSSLYNFLGSNDIAVHFFDYYENYTGSFMPRDFLLSGKMLLAQASAYKNKKKRLFLARKFIEGAASNMQKNLAYYNNRGKDMQPMMELIDKYSLRLKETTTIEALMGIEGNIRQAYYDAFNLIIDPFEMGVRSKQPPQNEVNALISFGNMMCYTLCLKAIHQSQLNPTISFLHTPGERRYSLCLDISEVFKPILVDRTIFKVMNKRIIQAKHFDKQLNKCILNPSGKKLFVQAFEERLSETIRHRKLNRSVSFRHLVKLECYKIAKDILGIEEYQPFKMYW | not soluble |
| MKKVGEYFLDPNLDPGRDHILYKDDEHMVIYLGTQEGLEDVDVNSYLIVSKGKGILIDPGGYKIFTKVLANVSKYIDPKDIEYIYMCHQDPDVAGSIPLWREISNAKIIIHWLWVRFLPHFGFENIRGYAHELQDEGETLNFGATTLEFIPAHFLHSPGHFTVYDRRSKFLFSGDIGIAFPDERYLVVENMERHIQYMRPLHERLMASNKALRLWVNKVRGLDIEAILPQHGAIIPRRFVPRFLDWLENLKVGVDLMR | soluble |
| MKKVVAVVKLQLPAGKATPAPPVGPALGQHGANIMEFVKAFNAATANMGDAIVPVEITIYADRSFTFVTKTPPASYLIRKAAGLEKGAHKPGREKVGRITWEQVLEIAKQKMPDLNTTDLEAAARMIAGSARSMGVEVVGAPEVKDA | soluble |
| MKKVYIKTFGCQMNEYDSDKMADVLGSAEGMVKTDNPEEADVILFNTCSVREKAQEKVFSDLGRIRPLKEANPDLIIGVGGCVASQEGDAIVKRAPFVDVVFGPQTLHRLPDLIESRKQSGRSQVDISFPEIEKLEHHHHHH | not soluble |
| MKKYILSLDQGTTSSRAILFNKKGEIVHSAQKEFTQHFPKPGWVEHNAQEIWGSILAVIATCLSEADVKPEQIAGIGITNQRETAVVWDKTTGKPIYNAIVWQSRQTAEICDELKEKGYSEMVREKTGLLIDAYFSGTKVKWILDNVEGAREKAENGDLLFGTIDTWLVWKLSGGKAHVTDYSNASRTLMFNIHDLQWDDELLDMLTVPKSMLPEVRPSSEVYGETIDYHFFGQNVPIAGVAGDQQAALFGQACFGEGMAKNTYGTGCFMLMNTGEKAVASEHGLLTTIAWGIDGKVNYALEGSIFVAGSAIQWLRDGMRMFKDASESEVYASRVESTDGVYVVPAFVGLGTPYWDSEVRGAMFGVTRGTTKEHFIRATLESLAYQIKDVLCAMEADSGIELKTLRVDGGAVKNNFLMKFQSDILDVPVERPVINETTALGAAYLAGLAVGYWKNQDEIKEQWHMDKRFEPTMEAETSEELYAGWKKAIEATKAFK | not soluble |
| MKKYTEMTKDELMQEKTALEAEYEKIKNLGLSLDMSRGKPGADQLDLSLPMLDVLKSDSDMKSESGLDVRNYACLDGIPEAKALIAGMVGAKPEQAIVYGNSSLNIMYDQVARAFIFGLCGNTPWCKLDKVKFLCPVPGYDRHFAITEEFGVEMINIPMTEDGPDMDMVEKYVNNDASVKGIWCVPKYSNPQGVVYSDETVERFAKLKPAADDFRIFWDNAYTVHHLYDDKQAEIPNILELCEKEGNPDMVFEFCSTSKVTFPGAGVAGICTSEKNREDIKKRLTIQTIGHDKINQLRHARFFKDVDGIKAHMAKHAALIRPKFELVENILTDEIASRGIGTWVKPLGGYFFGFEALSGCAKEIVAKCKEAGVTMTGAGSPFPYKKDPDDSVIRIAPTYPSLDELKKAAEVFVIVTRLVSVNKLLEA | not soluble |
| MKLAKRVAALTPSATLEITAKAQALKAEGHDVIGLGAGEPDFNTPEHIMDAAHKAMLEGHTKYTPTGGLQALKQEIVKKFTRDQGIAYDPSEIIVCNGAKHALYTLFQVLLDEGDEVIIPTPYWVSYPEQVKLAGGKPVYVEGLEGNEYKITAEQLREAITEKTKAVIINSPSNPTGMIYSKEELQQLGEVCLEHDILIVSDEIYEKLIYGGAEYTSIAQLSNALKEQTLIINGVSKSHSMTGWRIGYAAGNKQLIKAMTNLASHSTSNPTSIAQYGAIAAYAGSQEPVETMRQAFEERLNIIYDKLIQIPGFTCIKPQGAFYLFPNVKEAVALSGYETVDEWAKALLEEEKVALVPGTGFGAPNNVRLSYATSLEQVEKALERIHTFMKSKVQA | not soluble |
| MKLAVITDSTATLPTDLKQDKAIFSLDIPVIIDDETYFEGRNLSIDDFYQKMADSQNLPKTSQPSLSELDNLLGLLSSKGYTHVIGLFLAGGISGFWQNIQFLAEEHPEIEMAFPDSKITSAPLGSMVKNVLDWSRQGMTFQAILNKLQEQIDGTTAFIMVDDLNHLVKGGRLSNGSALLGNLLSIKPILRFDEEGKIVVYEKVRTEKKAMKRLVEILNDLIADGQYNVFIIHSKAQDKADYLKRLLQDSGYQYDIEEVHFGAVIATHLGEGAIAFGVTPRL | not soluble |
